± gives the standard error.
B1: library; numbered along this chain (parent)
chain: MATDAALRRLLRLHRTEIAVAVDSAFPLLHALADHDVVPEDKFQETLHLKEKEGCPQAFHALLSWLLTQDSTAILDFWRVLFKDYNLERYGRLQPILDSFPKDVDLSQPRKGRKPPAVPKALVPPPRLPTKRKASEEARAAAPAALTPRGTASPGSQLKAKPPKKPESSAEQQRLPLGNGIQTMSASVQRAVAMSSGDVPGARGAVEGILIQQVFESGGSKKCIQVGGEFYTPSKFEDSGSGKNKARSSSGPKPLVRAKGAQGAAPGGGEARLGQQGSVPAPLALPSDPQLHQKNEDECAVCRDGGELICCDGCPRAFHLACLSPPLREIPSGTWRCSSCLQATVQEVQPRAEEPRPQEPPVETPLPPGLRSAGEEVRGPPGEPLAGMDTTLVYKHLPAPPSAAPLPGLDSSALHPLLCVGPEGQQNLAPGARCGVCGDGTDVLRCTHCAAAFHWRCHFPAGTSRPGTGLRCRSCSGDVTPAPVEGVLAPSPARLAPGPAKDDTASHEPALHRDDLESLLSEHTFDGILQWAIQSMARPAAPFPS

Variants of: B1
Experiment: AIRE transcriptional activation functional score (insulin promoter-GFP; nonsense median 0, synonymous median 1) (normalised score); higher = higher AIRE activity (more reporter activation)
Settings: with insulin promoter-GFP reporter in HEK293
Experimental: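 Deep mutational scan of full-length human AIRE (codon-optimized cDNA, DT-POPCode NNN libraries over three regions) integrated at a Bxb1 landing pad in HEK293 cells carrying an insulin core promoter-GFP reporter at a Flp-In site. Cells were sorted for the top 10% GFP about 14 days after transfection. Variant frequency log-ratios (select vs non-select, TileSeq) were rescaled so that the nonsense median is 0 and the synonymous median is 1, then averaged over biological replicates.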

AIRE transcriptional activation functional score, by site and new letter:
T68: I -0.358 ± 0.46 | K 0.868 ± 0.12 | L 0.729 ± 0.36 | M 0.985 ± 0.062 | N 0.581 ± 0.61 | P 0.108 ± 0.16 | Q -1.24 ± 0.071 | R 0.304 ± 0.66 | S 0.804 ± 0.35 | V 0.624 ± 0.46 | W -0.374 ± 0.096 | Y 0.495 ± 0.42
Q69: A 0.0258 ± 0.39 | C 0.105 ± 0.28 | D 0.261 ± 0.43 | E 0.0374 ± 0.17 | F -0.0774 ± 0.21 | G 0.383 ± 0.3 | H -0.135 ± 0.25 | I -0.279 ± 0.22 | K 0.102 ± 0.77 | L -0.119 ± 0.37 | M -0.732 ± 0.14 | N -0.248 ± 0.65 | P 0.118 ± 0.37 | R 1.15 ± 0.56 | S -0.2 ± 0.34 | T -0.236 ± 0.32 | V -0.0416 ± 0.26 | W -0.383 ± 0.21 | Y 0.498 ± 0.32
D70: A -0.203 ± 0.38 | C 0.296 ± 0.14 | E 0.94 ± 0.4 | F -0.152 ± 0.57 | G 0.895 ± 0.36 | H -0.0845 ± 0.37 | I 0.395 ± 0.96 | K 2.05 ± 0.09 | L -0.362 ± 0.63 | M -0.516 ± 0.19 | N 0.992 ± 0.43 | P -0.549 ± 0.45 | Q 0.436 ± 0.49 | R 0.35 ± 0.4 | S 2.47 ± 0.55 | T 0.428 ± 0.28 | V -0.0452 ± 0.4 | W -0.512 ± 0.13 | Y -0.642 ± 0.49
S71: A 1.08 ± 0.21 | C 0.858 ± 0.3 | D 1.61 ± 0.27 | E 1.17 ± 0.4 | F 0.353 ± 0.15 | G 0.809 ± 0.75 | H 1.32 ± 0.71 | I 0.605 ± 0.47 | K 1.2 ± 0.25 | L -0.359 ± 0.47 | M 0.472 ± 0.059 | N 0.235 ± 0.16 | P -0.532 ± 0.41 | Q 2.02 ± 0.16 | R 0.321 ± 0.53 | T 1.05 ± 0.065 | V 0.229 ± 0.31 | W -0.0187 ± 0.13 | Y 1.52 ± 1.2
T72: A 1.01 ± 0.49 | C 0.562 ± 0.31 | D 2.22 ± 1.8 | F 0.964 ± 0.3 | G 0.0759 ± 0.77 | H 1.39 ± 0.13 | I 0.104 ± 0.57 | K 1.59 ± 0.38 | L 0.84 ± 0.8 | N 1.15 ± 0.55 | P 0.606 ± 0.35 | R 0.0611 ± 0.49 | S 0.667 ± 0.79 | V 1.28 ± 0.59 | W 0.0941 ± 0.059 | Y 0.224 ± 0.76
A73: C 0.629 ± 0.31 | D -0.0868 ± 0.094 | E 0.775 ± 0.12 | F 0.15 ± 0.087 | G -0.592 ± 0.48 | H 2.12 ± 0.25 | I 1.33 ± 0.14 | L 0.61 ± 0.97 | N -0.949 ± 0.43 | P 0.676 ± 0.44 | Q -1.02 ± 0.79 | R 1.26 ± 0.79 | S 0.179 ± 0.56 | T 1.01 ± 0.13 | V 1.1 ± 0.32 | W -0.767 ± 0.23 | Y 0.555 ± 0.91
I74: A 0.186 ± 0.47 | C 0.295 ± 0.23 | D 0.058 ± 0.41 | E -0.548 ± 0.08 | F -0.0221 ± 0.088 | G 0.496 ± 0.28 | H 0.604 ± 0.27 | K 0.384 ± 0.13 | L 0.0101 ± 0.28 | M 0.0325 ± 0.12 | N -0.347 ± 0.074 | P 0.409 ± 0.41 | Q 0.136 ± 0.17 | R -0.00714 ± 0.54 | S -0.0735 ± 0.31 | T -0.246 ± 0.34 | V 0.51 ± 0.27 | W 0.39 ± 0.23 | Y 0.19 ± 0.07
L75: A 0.288 ± 0.19 | C 0.732 ± 0.28 | D -0.0941 ± 0.23 | E -0.603 ± 0.18 | F 0.688 ± 0.28 | G 0.82 ± 0.23 | H 0.935 ± 1.1 | I 1.13 ± 0.5 | K 0.732 ± 0.062 | M 0.71 ± 0.18 | N 1.01 ± 0.29 | P -0.233 ± 0.32 | Q 0.0287 ± 0.28 | R 0.518 ± 0.39 | S 0.842 ± 0.35 | T 1.46 ± 0.32 | V 1.31 ± 0.33 | W 2.01 ± 0.082 | Y 1.52 ± 0.12
D76: A 0.43 ± 0.44 | C 0.409 ± 0.76 | E 0.132 ± 0.51 | F -0.202 ± 0.69 | G -0.331 ± 0.51 | H 0.235 ± 0.16 | I 0.22 ± 0.4 | L 0.535 ± 0.84 | M 2.3 ± 0.11 | N -0.077 ± 0.96 | R 0.463 ± 0.69 | S 0.371 ± 0.14 | T 0.0165 ± 0.26 | V 0.795 ± 0.29 | W 0.516 ± 0.083 | Y 0.302 ± 0.36
F77: A 0.257 ± 0.36 | C 0.198 ± 0.17 | D -0.0172 ± 0.53 | E 0.445 ± 0.46 | G -0.0629 ± 0.48 | H 0.528 ± 0.61 | I 0.0486 ± 0.17 | K 0.21 ± 0.52 | L -0.0762 ± 0.36 | M 0.136 ± 0.39 | N -0.429 ± 1
